Numbering of substitutions follows the chain as printed.
Tests used:
[1] = target: T1, Topo IICm1 (Giardia lamblia, UniProt E2RU90 489-1491, Y847H); test: EMSA; EMSA: 0.02 pmol 5'-labeled probe, 5 ng protein, 20 ul, 0.5 ug poly(dI-dC), 15 min, room temperature, 6% acrylamide gel; buffer, salt and pH only by citation; settings: protein: recombinant; tags: C-terminal V5-His; chain copies: 2; label: 5'-32P
T1 sequence: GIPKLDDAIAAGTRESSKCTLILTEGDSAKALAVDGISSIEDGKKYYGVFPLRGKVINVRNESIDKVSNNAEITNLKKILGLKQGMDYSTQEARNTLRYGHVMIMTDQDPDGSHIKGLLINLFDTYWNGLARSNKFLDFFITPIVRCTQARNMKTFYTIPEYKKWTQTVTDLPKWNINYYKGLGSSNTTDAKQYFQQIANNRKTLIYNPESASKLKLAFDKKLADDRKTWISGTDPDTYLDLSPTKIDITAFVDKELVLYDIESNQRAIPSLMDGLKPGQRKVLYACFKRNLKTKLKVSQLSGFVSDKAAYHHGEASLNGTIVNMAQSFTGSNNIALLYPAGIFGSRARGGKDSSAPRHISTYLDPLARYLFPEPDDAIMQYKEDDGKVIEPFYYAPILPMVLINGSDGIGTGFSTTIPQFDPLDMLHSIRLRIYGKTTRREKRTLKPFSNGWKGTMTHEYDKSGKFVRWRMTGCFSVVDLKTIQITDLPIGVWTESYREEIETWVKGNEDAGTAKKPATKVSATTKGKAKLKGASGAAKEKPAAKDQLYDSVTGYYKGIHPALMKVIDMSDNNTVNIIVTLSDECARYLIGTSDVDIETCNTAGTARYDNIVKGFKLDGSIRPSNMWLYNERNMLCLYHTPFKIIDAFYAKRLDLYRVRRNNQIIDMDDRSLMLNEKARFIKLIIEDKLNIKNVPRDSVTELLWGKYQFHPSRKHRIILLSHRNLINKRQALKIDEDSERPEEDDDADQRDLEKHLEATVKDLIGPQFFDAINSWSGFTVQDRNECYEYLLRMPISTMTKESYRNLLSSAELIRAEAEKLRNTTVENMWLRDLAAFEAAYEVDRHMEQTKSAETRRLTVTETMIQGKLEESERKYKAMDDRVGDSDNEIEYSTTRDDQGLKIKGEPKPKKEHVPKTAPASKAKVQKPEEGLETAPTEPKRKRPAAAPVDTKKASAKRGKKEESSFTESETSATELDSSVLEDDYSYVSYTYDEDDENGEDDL

[2] = target: T2, Topo IIC (Giardia lamblia, UniProt E2RU90 489-1491); test: as above; settings: protein: recombinant; tags: C-terminal V5-His; chain copies: 2; label: 5'-32P
T2 sequence: T1 sequence with H359Y

B1: IIBS (dsDNA)
DNA 1: ATGAAATCTAACAATGCGCTCATCGTCATCCTCGGC
DNA 2: GCCGAGGATGACGATGAGCGCATTGTTAGATTTCAT
B1: binds [1]; binds [2].

From PMC3656124, “DNA Topoisomerase II Is Involved in Regulation of Cyst Wall Protein Genes and Differentiation in Giardia lamblia” (PLoS Neglected Tropical Diseases, 2013)
